Experimental data published in patent US20220348609A1 (University of Washington, published 2022).
Positions count from the first letter of the chain named.

B1: BP1 (av6_3_E13T) (designed binder)
chain: MAVVRFVFRGDLATLMLRAVKDHLKKEGPHWNITSTNNGAELVVRGIHESDAKRIAKWVEKRFPGVHTETQQD
notes: also called BPI; not shown: C-terminal His tag (pET29b, NdeI/XhoI)
B2: BP2 (av6_3_A39KG64R) (designed binder)
chain: B1 chain with T14E, A40K, G65R
notes: not shown: C-terminal His tag (pET29b, NdeI/XhoI)
B3: BP2_disulf with knockout mutation of the RGD to KGE (designed binder)
chain: MTKCVVRFVFKGELAELMLRAVKDHLKKEGPHWNITSTNNGKELVVRGIHESDAKRIAKWVEKRFPRVHTETQCD
notes: if the listing entry starts with Met they are 11 and 13; also called KGE knockout of BP2_disulf

Assays:
[1] = molecular target: T1, human αvβ6 integrin, soluble protein (biotinylated for yeast display; in solution for BLI) (human, UniProt P06756 31-992; P18564 22-707, limits assumed, biotinylated in the yeast display experiments (site not stated)); assay: BLI titration of purified protein against αvβ6 (FIG. 2f,g); BLI, purified BP1 against αvβ6
T1 construct: also called avb6; alpha(v) beta (6) integrin
T1 sequence (P06756 31-992 limits assumed, chain 1 of 2): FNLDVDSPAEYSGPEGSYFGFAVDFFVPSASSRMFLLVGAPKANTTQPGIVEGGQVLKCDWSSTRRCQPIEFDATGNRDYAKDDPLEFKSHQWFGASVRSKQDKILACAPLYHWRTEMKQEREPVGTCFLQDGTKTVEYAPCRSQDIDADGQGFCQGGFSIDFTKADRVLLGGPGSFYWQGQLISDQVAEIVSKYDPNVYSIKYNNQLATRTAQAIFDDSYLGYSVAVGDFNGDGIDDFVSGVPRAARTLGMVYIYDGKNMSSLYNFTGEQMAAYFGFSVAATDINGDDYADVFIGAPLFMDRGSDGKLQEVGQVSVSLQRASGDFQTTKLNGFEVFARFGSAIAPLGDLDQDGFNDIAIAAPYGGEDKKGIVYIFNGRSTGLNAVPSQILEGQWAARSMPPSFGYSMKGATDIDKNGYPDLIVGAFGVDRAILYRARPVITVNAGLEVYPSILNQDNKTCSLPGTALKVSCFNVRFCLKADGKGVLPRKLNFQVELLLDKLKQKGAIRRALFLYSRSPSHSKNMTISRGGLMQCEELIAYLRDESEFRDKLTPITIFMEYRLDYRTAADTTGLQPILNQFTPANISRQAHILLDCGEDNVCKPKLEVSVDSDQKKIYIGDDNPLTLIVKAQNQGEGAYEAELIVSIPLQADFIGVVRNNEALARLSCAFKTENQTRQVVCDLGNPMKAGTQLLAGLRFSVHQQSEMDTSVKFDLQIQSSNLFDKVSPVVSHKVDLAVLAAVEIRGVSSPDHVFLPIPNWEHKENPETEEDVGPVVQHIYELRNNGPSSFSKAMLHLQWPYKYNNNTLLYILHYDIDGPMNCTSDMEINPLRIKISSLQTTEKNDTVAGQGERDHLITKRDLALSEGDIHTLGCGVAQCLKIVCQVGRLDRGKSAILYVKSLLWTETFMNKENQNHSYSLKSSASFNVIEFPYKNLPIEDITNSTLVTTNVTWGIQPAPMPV
T1 sequence (P18564 22-707 limits assumed, chain 2 of 2): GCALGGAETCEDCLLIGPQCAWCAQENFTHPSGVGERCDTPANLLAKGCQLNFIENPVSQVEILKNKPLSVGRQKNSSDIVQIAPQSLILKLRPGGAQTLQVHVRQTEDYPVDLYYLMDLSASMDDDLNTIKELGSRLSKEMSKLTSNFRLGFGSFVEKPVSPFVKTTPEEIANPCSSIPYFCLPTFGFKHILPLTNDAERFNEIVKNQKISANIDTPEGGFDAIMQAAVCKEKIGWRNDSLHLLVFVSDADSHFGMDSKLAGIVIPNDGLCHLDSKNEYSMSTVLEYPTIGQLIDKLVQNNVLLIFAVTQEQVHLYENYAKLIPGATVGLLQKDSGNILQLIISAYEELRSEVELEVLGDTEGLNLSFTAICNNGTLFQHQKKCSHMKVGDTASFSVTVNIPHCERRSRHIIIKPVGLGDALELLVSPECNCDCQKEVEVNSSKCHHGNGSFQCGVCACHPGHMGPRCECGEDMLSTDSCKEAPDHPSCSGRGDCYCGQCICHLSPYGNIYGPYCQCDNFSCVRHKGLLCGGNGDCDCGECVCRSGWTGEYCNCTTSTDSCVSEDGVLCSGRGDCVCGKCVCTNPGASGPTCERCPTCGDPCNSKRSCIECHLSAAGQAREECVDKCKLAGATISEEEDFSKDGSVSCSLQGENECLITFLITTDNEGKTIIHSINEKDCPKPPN
Description: (§1) Data was collected on an Octet™ RED96 (Forte Bio) and processed using the instrument's software. His Tagged protein binders were immobilized on Ni-NTA octet sensors. The tips are then dipped into wells containing different concentrations of αᵥβ₆. Association and dissociation steps were recorded for 900 s and 1200 s respectively. An empty sensor with no loaded binding protein was included to discard any non-specific binding of αᵥβ₆ to the octet tip.

[2] = molecular target: T2, αiibβ3 integrin on stably transfected K562 cells (UniProt P08514 32-1039; P05106 27-788, limits assumed); assay: cell surface binding on stably transfected K562 cells
T2 construct: whole, on cells; also called aiibb3; alpha (iib) beta (3) integrin

[3] = molecular target: T3, αvβ3 integrin on stably transfected K562 cells (UniProt P06756 31-1048; P05106 27-788, limits assumed); assay: as above
T3 construct: whole, on cells; also called avb3; alpha(v) beta (3) integrin
T3 sequence (P06756 31-1048 limits assumed, chain 1 of 2): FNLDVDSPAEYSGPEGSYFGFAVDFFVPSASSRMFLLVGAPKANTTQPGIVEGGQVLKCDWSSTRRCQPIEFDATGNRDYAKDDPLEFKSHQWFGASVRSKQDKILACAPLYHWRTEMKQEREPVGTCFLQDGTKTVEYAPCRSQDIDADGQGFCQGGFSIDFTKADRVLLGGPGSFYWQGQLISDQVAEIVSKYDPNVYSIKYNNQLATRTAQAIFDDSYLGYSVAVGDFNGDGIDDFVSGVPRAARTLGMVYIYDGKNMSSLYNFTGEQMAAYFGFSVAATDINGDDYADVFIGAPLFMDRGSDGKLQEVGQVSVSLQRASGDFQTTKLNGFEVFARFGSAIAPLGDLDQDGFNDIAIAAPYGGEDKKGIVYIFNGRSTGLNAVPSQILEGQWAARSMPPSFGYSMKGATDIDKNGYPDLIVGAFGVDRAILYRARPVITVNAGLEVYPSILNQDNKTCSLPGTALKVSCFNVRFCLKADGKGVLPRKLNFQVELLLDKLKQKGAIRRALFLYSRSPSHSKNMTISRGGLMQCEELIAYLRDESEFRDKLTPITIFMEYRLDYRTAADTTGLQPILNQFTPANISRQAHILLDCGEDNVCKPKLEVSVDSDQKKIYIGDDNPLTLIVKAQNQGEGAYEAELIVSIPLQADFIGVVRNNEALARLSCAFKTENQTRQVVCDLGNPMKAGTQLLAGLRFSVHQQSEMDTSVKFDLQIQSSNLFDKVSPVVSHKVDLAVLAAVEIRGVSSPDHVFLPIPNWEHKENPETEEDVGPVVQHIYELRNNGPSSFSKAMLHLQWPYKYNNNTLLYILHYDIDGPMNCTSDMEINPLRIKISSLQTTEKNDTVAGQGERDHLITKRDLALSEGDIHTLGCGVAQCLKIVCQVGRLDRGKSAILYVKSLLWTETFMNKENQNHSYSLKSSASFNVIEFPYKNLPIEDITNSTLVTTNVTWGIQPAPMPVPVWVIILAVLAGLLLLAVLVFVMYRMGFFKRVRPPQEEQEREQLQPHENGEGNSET
T3 sequence (P05106 27-788 limits assumed, chain 2 of 2): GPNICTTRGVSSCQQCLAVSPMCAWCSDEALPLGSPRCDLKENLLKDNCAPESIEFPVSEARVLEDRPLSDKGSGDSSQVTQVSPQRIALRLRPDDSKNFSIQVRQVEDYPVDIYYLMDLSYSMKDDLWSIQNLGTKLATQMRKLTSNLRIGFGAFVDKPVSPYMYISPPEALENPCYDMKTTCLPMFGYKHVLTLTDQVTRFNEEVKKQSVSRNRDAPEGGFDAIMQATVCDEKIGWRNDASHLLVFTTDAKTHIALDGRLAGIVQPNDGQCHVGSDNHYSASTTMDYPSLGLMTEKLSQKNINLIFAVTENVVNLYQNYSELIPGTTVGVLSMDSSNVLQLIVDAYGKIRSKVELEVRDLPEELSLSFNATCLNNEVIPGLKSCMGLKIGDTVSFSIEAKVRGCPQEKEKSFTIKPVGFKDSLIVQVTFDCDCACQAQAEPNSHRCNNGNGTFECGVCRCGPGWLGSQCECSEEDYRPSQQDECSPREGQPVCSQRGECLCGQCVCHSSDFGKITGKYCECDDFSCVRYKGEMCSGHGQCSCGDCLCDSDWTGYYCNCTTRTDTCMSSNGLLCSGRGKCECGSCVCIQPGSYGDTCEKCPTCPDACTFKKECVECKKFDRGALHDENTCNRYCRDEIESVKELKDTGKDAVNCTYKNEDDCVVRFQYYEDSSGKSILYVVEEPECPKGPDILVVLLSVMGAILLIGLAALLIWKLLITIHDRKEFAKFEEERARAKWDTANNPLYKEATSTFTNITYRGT

[4] = molecular target: T4, α8β1 integrin on stably transfected K562 cells (UniProt P53708 39-1063; P05556 21-798, limits assumed); assay: as above
T4 construct: whole, on cells; also called a8b1; alpha 8 beta 1

[5] = molecular target: T5, αvβ1 integrin on stably transfected K562 cells (UniProt P06756 31-1048; P05556 21-798, limits assumed); assay: as above
T5 construct: whole, on cells; also called avb1; alpha(v) beta (1) integrin

[6] = molecular target: T6, α5β1 integrin on stably transfected K562 cells (UniProt P08648 42-1049; P05556 21-798, limits assumed); assay: as above
T6 construct: whole, on cells; also called a5b1; alpha 5 beta 1

[7] = molecular target: T7, αvβ5 integrin on stably transfected K562 cells (UniProt P06756 31-1048; P18084 24-799, limits assumed); assay: as above
T7 construct: whole, on cells; also called avb5; alpha(v) beta (5) integrin
T7 sequence (P06756 31-1048 limits assumed, chain 1 of 2): as the sequence (P06756 31-1048 limits assumed, chain 1 of 2) above
T7 sequence (P18084 24-799 limits assumed, chain 2 of 2): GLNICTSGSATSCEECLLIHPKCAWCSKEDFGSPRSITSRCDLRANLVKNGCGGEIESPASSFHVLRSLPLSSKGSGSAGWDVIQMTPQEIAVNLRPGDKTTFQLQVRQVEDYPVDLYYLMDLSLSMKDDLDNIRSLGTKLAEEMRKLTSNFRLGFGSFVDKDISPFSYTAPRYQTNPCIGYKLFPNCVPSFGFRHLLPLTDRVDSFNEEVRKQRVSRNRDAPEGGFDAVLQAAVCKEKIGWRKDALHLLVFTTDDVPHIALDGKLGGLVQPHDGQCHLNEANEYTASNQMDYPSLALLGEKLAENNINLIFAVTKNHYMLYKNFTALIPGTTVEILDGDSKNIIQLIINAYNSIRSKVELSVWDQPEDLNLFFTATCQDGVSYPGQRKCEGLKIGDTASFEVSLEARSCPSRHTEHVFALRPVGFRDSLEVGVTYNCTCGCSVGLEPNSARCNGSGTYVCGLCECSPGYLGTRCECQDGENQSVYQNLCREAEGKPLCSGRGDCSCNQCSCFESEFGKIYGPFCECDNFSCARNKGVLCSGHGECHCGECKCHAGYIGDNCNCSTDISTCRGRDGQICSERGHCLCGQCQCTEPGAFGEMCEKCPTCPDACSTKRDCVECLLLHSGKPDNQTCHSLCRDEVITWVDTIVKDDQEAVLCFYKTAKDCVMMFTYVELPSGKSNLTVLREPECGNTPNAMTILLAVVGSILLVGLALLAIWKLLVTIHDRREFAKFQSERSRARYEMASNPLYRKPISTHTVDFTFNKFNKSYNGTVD

[8] = molecular target: T1, human αvβ6 integrin, soluble protein …; assay: BLI (Octet RED96), His-tagged binder on Ni-NTA sensor, αvβ6 in solution
Description: as §1

[9] = molecular target: T8, human αvβ6 integrin on cells (A431 carcinoma cells; K562 cells stably transfected with αvβ6) (human, UniProt P06756 31-1048; P18564 22-788); assay: cell-based or functional assay
T8 sequence (P06756 31-1048, chain 1 of 2): as the sequence (P06756 31-1048 limits assumed, chain 1 of 2) above
T8 sequence (P18564 22-788, chain 2 of 2): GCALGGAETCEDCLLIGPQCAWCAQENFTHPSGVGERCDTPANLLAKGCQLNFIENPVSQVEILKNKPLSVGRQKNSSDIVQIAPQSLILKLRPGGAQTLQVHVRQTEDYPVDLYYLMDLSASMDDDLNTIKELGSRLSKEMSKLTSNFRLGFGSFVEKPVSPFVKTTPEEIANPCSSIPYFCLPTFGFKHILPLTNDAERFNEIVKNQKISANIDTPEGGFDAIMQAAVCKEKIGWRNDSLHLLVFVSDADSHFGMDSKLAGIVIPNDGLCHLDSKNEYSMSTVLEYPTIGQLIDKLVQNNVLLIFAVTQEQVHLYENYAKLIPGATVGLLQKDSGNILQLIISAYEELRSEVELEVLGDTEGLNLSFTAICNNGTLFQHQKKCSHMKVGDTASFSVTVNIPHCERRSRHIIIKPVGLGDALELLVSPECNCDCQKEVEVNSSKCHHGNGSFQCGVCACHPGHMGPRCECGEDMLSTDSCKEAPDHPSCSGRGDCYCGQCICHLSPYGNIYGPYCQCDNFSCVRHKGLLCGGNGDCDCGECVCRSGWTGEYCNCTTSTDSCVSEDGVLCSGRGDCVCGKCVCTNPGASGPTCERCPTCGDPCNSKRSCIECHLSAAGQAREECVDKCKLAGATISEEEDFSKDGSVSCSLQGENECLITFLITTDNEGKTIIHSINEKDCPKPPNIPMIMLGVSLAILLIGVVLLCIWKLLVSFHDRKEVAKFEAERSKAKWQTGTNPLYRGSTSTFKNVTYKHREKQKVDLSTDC

[10] = molecular target: T9, human αvβ8 integrin on cells (K562 cells stably transfected with αvβ8; HeLa b8 cells in the TMLC assay) (human, UniProt P06756 31-1048; P26012 43-769); assay: cell surface titration on K562 cells stably transfected with αvβ8; K562 cells with αvβ8; BP1 lacking A39K
T9 construct: whole, on cells; also called avb8; alpha(v) beta (8) integrin

[11] = molecular target: T8, human αvβ6 integrin on cells (A431 …); assay: cell surface binding assay on K562 cells stably expressing αvβ6/αvβ8; reference αvβ8
[12] = molecular target: T1, human αvβ6 integrin, soluble protein …; assay: BLI titration of purified protein against αvβ6 (FIG. 2f,g); BLI, purified BP2 against αvβ6
Description: as §1

[13] = molecular target: T1, human αvβ6 integrin, soluble protein …; assay: binding assay not named

| Binder | Kd [1] [nM] | binding result [2] | binding result [3] | binding result [4] | binding result [5] | binding result [6] | binding result [7] | Kd [8] [nM] | IC50 of the block of αvβ6 mediated TGF-β activation, TMLC luciferase reporter co-culture assay [9] [nM] | Kd [10] [nM] | fold specificity towards αvβ6 over αvβ8 [11] [fold] | Kd [12] [nM] | binding result [13] |
| --- | --- | --- | --- | --- | --- | --- | --- | --- | --- | --- | --- | --- | --- |
| B1 | < 1 | no binding (tested: up to 200 nM) | no binding (tested: up to 200 nM) | no binding (tested: up to 200 nM) | no binding (tested: up to 200 nM) | no binding (tested: up to 200 nM) | no binding (tested: up to 200 nM) | 0.334 | 0.199 | ~7.3 |  |  |  |
| B2 |  | no binding (tested: up to 200 nM) | no binding (tested: up to 200 nM) | no binding (tested: up to 200 nM) | no binding (tested: up to 200 nM) | no binding (tested: up to 200 nM) | no binding (tested: up to 200 nM) | 0.414 | 0.151 |  | > 5000 | < 1 |  |
| B3 |  |  |  |  |  |  |  |  |  |  |  |  | no binding |
